Our source for the Kd values is article PMC9170038, “Crowdsourced RNA design discovers diverse, reversible, efficient, self-contained molecular switches”.

Sequences and labels used below:
B1: Eterna 6461493 (Inverted Same State NG 1) (ssRNA)
RNA: GUGCUUUGGGAGAAGGCCGUAUGCAAAGCAUACGGAGGAUAUUCAUACCGGAAACGGACAUGAGGAUCACCCAUGUGGCACAAA
B2: Eterna 6387857 (Small Loop Same State NG 3) (ssRNA)
RNA: AAUCUUUUUAUGGGAUUACAAUAUGAGGAUAUCAUUCAUUUAUACAUGAGGAUCACCCAUGUUACUGAGAAGGCAUAUAUAAUA
B3: Eterna 6146814 (Same State NG 1) (ssRNA)
RNA: GGUGUCGCAUGAGGAUAUGGUCAGCUUUGCUGACCAGAAGGCAUGUCAAUAGACAUGAGGAUCACCCAUGUAGUAAAGACACCA
B4: Eterna 6075609 (Exclusion 3) (ssRNA)
RNA: CUGAGUUAAGGAUAUACAUGAGGAUCACCCAUGUAAAGUAGCUUGCGUACAGGCAGAUGUAGAAGGUAAUUCGG
B5: Eterna 1618 (Same State - Theophylline A) (ssRNA)
RNA: GAUUGAGUGAUGUUCAAUUAGUAUCUAGAUACCAGAAUGUCUACCUUCCCUUGGCAGCUACUGACGGUGAUCAUUUCGCGCGCAG
B6: Eterna 11543 (Sensor v3, turn-off variant 1) (ssRNA)
RNA: AAAGAAGAGAGAAAAUAACACAUGAGGAUCACCCAUGUGAGAAGUUGAGGGUGAUACAGGCUUUAUGCUCGUCUUAU
B7: Eterna 1184 (Exclusion - Theophylline B) (ssRNA)
RNA: AACACCCGCUAUGAUACCAGUGAAGUGAUGUUUUACUCCGGGCGUAAGACAAAGGUCAGCCACCCUUGGCAGCAUAUCCGCGUAU
B8: Eterna 7741560 (Exclusion - FMN A) (ssRNA)
RNA: UCCUAGGCUCGAAAGAGCCUAGGAUUGACUCAGGAUAUCCGGAAACGGAGAAGGGAGUCACUAGUGAUGUUAGGGAUUCCCUAUU
B9: Eterna 6069320 (Exclusion 4) (ssRNA)
RNA: GGGUUGUGAGGAUAUUAGUUGUACGUCAAUAGACGUAUGGGUGAGAAGGCACAUGAGGAUCACCCAUGUUCCUG
B10: Eterna 7763203 (Exclusion - FMN B) (ssRNA)
RNA: AAAUAACAGGCAGGAUAUGCUUAGUAAUAAGGCCAUAUAUACGUAUAGAGUGAUGUUUUGUACAAAGCAGAAGGGCUAAAUCCAU
B11: Eterna 6402815 (Same State NG 2) (ssRNA)
RNA: ACCUCGUACACAGGAUAUGAUUACUUGCAGCCUGCGUUGACAUGAGGAUCACCCAUGUGGACUGAUCAGAAGGGUGAACGGAAG
B12: Eterna 7744734 (Exclusion - Tryptophan A) (ssRNA)
RNA: CGUGAAUGUCGUCAGUCAUCGGUCCAUGCACGAGGACCGGUACGGCCGCCACUCGAGCGUGGCAGUGAUGUUGCCAGCGCACUAA
B13: Eterna 6446347 (Same State NG 2) (ssRNA)
RNA: GGGUACAUCGGAGGAUAUCAUGUAAAUACAUGAGGAUCACCCAUGUCGGUGGAGACAUCGGAGAUUGAGAAGGCCGAUGUACCG
B14: Eterna 5958897 (Exclusion NG 2) (ssRNA)
RNA: AGCUGUGGCCGAGGAUAUCUAUCCCAAAUAACCGAAAUAUAAUCGGACAUGAGGAUCACCCAUGUAGAGAAGGCGGUCUCAGCA
B15: Eterna 7750603 (Exclusion - Arginine A) (ssRNA)
RNA: GGCCGCAAGGCGAGCGCUCCCACUCCGGAAGGAGCGCCCGUAAGGGCAGGUAGGUCGCCGGAGUGAUGUUCCGGUGGAGGGCUCG
B16: Eterna 13730 (Sensor v3, turn-off variant 1) (ssRNA)
RNA: CCGAGGAAGCGGUCCUAUGACAUGAGGAUCACCCAUGUACCUCGCUACGAGCUUUUUGCUCGUCUUAUAAUUCUCGG
B17: Eterna 10695 (Exclusion 1) (ssRNA)
RNA: AAUUCACAUGAGGAUCACCCAUGUCAGGAUAUGGUGACGCGGGUUUCGGUGCGUGUUGCCAGAAGGGACGGCUG
B18: Eterna 6122145 (Exclusion NG 2) (ssRNA)
RNA: AAAUUUAACGAAGGAUAUGCUGACAUGAGGAUCACCCAUGUGUGCUUUGUGUUGCUGAAAUGGGAGCAGAAGGUCGUAUACAUA
B19: Eterna 6045632 (Brourd's mod of Exclusion 4) (ssRNA)
RNA: CGGGCUGCUGUGAGGAUAUGCCUGUGGGUGCGUGGGUAGAAGGCACAUGAGGAUCACCCAUGUCCUGCAGCUCG
B20: Eterna 7689684 (Same State - Theophylline A) (ssRNA)
RNA: UGGAGUUGACGAAAAGUCAACUCCUGAGAUACCAGUGACGAAAGUCACCCUUGGCAGCUCACUGCCAGUGAUGUUGGAAAUAAAA
B21: Eterna 6122649 (Exclusion NG 2) (ssRNA)
RNA: UUAUCUUGUCAAGGAUAUGUUGUAUUGAUCUGAAAACAUGAGGAUCACCCAUGUAUACGGUGGGAACAGAAGGUGAAUGUAGAA
B22: Eterna 6461246 (Same State NG 1) (ssRNA)
RNA: GUUUUCGCAUGAGGAUAUGCUCGCAUUUUAAGAGCAGAAGGUAUGUCUUUAGACAUGAGGAUCACCCAUGUAUUUAUCAUUGAA
B23: Eterna 7717543 (Exclusion - Theophylline B) (ssRNA)
RNA: CCAUUCAUUUACGAUACCAGUCUAAUAUAUUUAAUCAAAACCCUCGCCGAGUGAUGUUCGGACCCUUGGCAGCGUCUGCGACAGG
B24: Eterna 5989868 (Exclusion 3) (ssRNA)
RNA: GUAUCACGAGGAUAUACAUGAGGAUCACCCAUGUAGAAGCCAUGUGGUGCUCAAGUAUGUAGAAGGCGUGCUCC
B25: Eterna 8603 (Same State 1) (ssRNA)
RNA: AUAAAACAUGAGGAUCACCCAUGUCAACAAAGUCGAGGAUAUGGGCAAAUAAAAUAAGAACCAGAAGGCGUAUAAU
B26: Eterna 6458058 (Inverted Same State NG 2) (ssRNA)
RNA: AAUGGGCAGCAGAAGGCAUGUCUACGGACAUGAGGAUCACCCAUGUAGUAAAGCCGAAAGGCGCAUGAGGAUAUGCUGCCCUAA
B27: Eterna 15090 (Exclusion 6) (ssRNA)
RNA: AAAUGGGCGUAGGAUAUGAGAUGGUCUAGCAGCUCAGAAGGACGCACAUGAGGAUCACCCAUGUGAUCGGACUA
B28: Eterna 7740311 (Same State - Theophylline A) (ssRNA)
RNA: AAAAUAAGCCAGUGAUGUUGGUAUACAGAUACCAGCGACGAAAGUCGCCCUUGGCAGCUGUGGACGUACAAAAUAAGUACGUCCU
B29: Eterna 6455078 (Same State NG 2) (ssRNA)
RNA: UGGUACUAGGGAGGAUAUGGGAAGAUACAUGAGGAUCACCCAUGUUUAAGAAUGCCGAGAGGGAACUAGAAGGCCCUAGUACCU
B30: Eterna 13277 (Sensor for hsa-mir-208a) (ssRNA)
RNA: AGUUGUGGGAAACUAUAGCAGACGCUCGUACAUGAGGAUCACCCAUGUCUUGUAGGAGCUGUUUGCUCGUUUUAUGG
B31: Eterna 6455789 (Same State NG 2) (ssRNA)
RNA: UUGGACGUCGUAGGAUAUGUAGGAUAUUCCUACAUGAGGAUCACCCAUGUUGACAUGGAAGAAGGACAGAAGUACGAUGUCCAU
B32: Eterna 7740449 (Exclusion - Theophylline A) (ssRNA)
RNA: AUGUUUUAUAAACUCAUGGUUUCGACAGAUACCAGCUUCGAGAGGAGCCCUUGGCAGCUGCAUGAGUGAUGUUCAUGUACGAAGA
B33: Eterna 6430193 (Small Loop Exclusion NG 3) (ssRNA)
RNA: GUCGAAACCAUACUGGUCGACGGUCAGGAUAUACAUGAGGAUCACCCAUGUGCUAUUGAUACUAUGUAGAAGGGACCCACCGCA
B34: Eterna 7613251 (Exclusion - Tryptophan A) (ssRNA)
RNA: CGGACAUGAGGAUCACCCAUGUCGUCGACGCGAGGACCGGUACGGCCGCCACUCGCAUGCCAAUGAGCGCAUGCGGCCUGGGUAU
B35: Eterna 7644049 (Same State - Tryptophan A) (ssRNA)
RNA: ACAUGAGGAUCACCCAUGUCAUGAGGUUCACGAGGACCGGUACGGCCGCCACUCGACAUGAGGGUCACCCGUGAACGGAACACCC

The first series addresses T1, MS2 coat protein, dlFG mutant (Escherichia phage MS2, UniProt P03612, del68-81insG). In words: 4 mM Mg2+; no ligand; RNA-MaP array; 100 mM Tris-HCl pH 7.5, 80 mM KCl, 4 mM MgCl2, 0.1 mg/mL BSA, 1 mM DTT, 0.01 mg/mL yeast tRNA, 0.01% Tween-20; protein 1.5 nM to 3 uM; 37 C (Table S3). To be noted: chain copies: 2; label: tethered by stalled RNA polymerase.
As to B1, the Kd (usually the free concentration of one partner at which half of the binding sites on the other are occupied at equilibrium, for simple one-to-one binding) worked out at 1200 nM.

Molecule B2 returned a Kd of 28.4 nM.

As for UUUGCAGGGCAGUGAUGUUGCCCUGCUUU (ssRNA) [Eterna 8 (K4-8bp_control)], the Kd was more than 3000 nM.

Take B3: binding was put at a Kd of 504 nM.

Regarding B4, the Kd came to 43 nM.

Consider B5, for which the equilibrium dissociation constant (Kd) was more than 3000 nM.

With B6, the Kd stood at 203 nM.

Regarding B7, the Kd is more than 3000 nM.

Molecule B8 returned a Kd of more than 3000 nM.

In the case of B9, the dissociation constant (Kd) amounted to 107 nM.

Molecule B10 returned a Kd of more than 3000 nM.

B11 displayed a Kd of 571 nM.

In the case of B12, the Kd is more than 3000 nM.

B13: binding was characterised by a dissociation constant (Kd) of 271 nM.

B14 came in with a Kd of 28.4 nM.

As to UUUCUUAUUCUUUAUUGUGGGGUUUU (ssRNA) [Eterna 4 (OligoAControl)], the dissociation constant (Kd) was more than 3000 nM.

The molecule B15 yielded a Kd of more than 3000 nM.

B16 had a Kd of 23.6 nM.

Take B17: the Kd turned out to be 133 nM.

The molecule B18 displayed a Kd of 118 nM.

Molecule B19 gave a Kd of 1130 nM.

Regarding B20, the Kd is more than 3000 nM.

Molecule B21 showed a Kd of 808 nM.

For the molecule B22, binding was put at a Kd of 162 nM.

B23: the Kd is more than 3000 nM.

With B24, the Kd turned out to be 36.1 nM.

B25 displayed a Kd of 530 nM.

Consider B26, for which binding was put at a Kd of 121 nM.

Take B27: the affinity, expressed as Kd, was 28.7 nM.

For the molecule B28, the Kd is more than 3000 nM.

B29 showed a Kd of 255 nM.

As to B30, the affinity, expressed as Kd, was 63.8 nM.

The molecule B31 came in with a Kd of 127 nM.

In turn, B32 registered a Kd of more than 3000 nM.

A further series deals with T1, MS2 coat protein, dlFG mutant. Nature of the series: 4 mM Mg2+; FMN 200 uM; RNA-MaP array; 100 mM Tris-HCl pH 7.5, 80 mM KCl, 4 mM MgCl2, 0.1 mg/mL BSA, 1 mM DTT, 0.01 mg/mL yeast tRNA, 0.01% Tween-20; protein 1.5 nM to 3 uM; 37 C (Table S3). To be noted: chain copies: 2; label: tethered by stalled RNA polymerase.
With B33, binding was characterised by a dissociation constant (Kd) of 24.4 nM.

The target is the same in another series. In words: 4 mM Mg2+; L-tryptophan 2.4 mM; RNA-MaP array; 100 mM Tris-HCl pH 7.5, 80 mM KCl, 4 mM MgCl2, 0.1 mg/mL BSA, 1 mM DTT, 0.01 mg/mL yeast tRNA, 0.01% Tween-20; protein 1.5 nM to 3 uM; 37 C (Table S3). The conditions noted are these: chain copies: 2; label: tethered by stalled RNA polymerase.
Molecule B34 returned a Kd of 22.8 nM.

As for B35, binding was characterised by a dissociation constant (Kd) of 20 nM.
